Measurements reported in patent US20190300590A1 (PROTAGONIST THERAPEUTICS, published 2019).
*1 amine or outer side, *2 acyl side, *3 side chain or, on linkers, in order; H or OH if unused. Bridges are numbered along the chain shown (N, C = ends). Primed or numbered codes have the meaning given here. [ ]: non-standard residue; d: D form. Phe(4-OMe)(3) = O-methyl-L-tyrosine (4-methoxy-L-phenylalanine), COc1ccc(C[C@H](N[*:1])C(=O)[*:2])cc1; Phe(4-OMe) = 4-methoxy-L-phenylalanine (O-methyl-L-tyrosine), COc1ccc(C[C@H](N[*:1])C(=O)[*:2])cc1; Tyr(3-tBu) = CC(C)(C)c1cc(C[C@H](N)C(=O)O)ccc1O; Abu(4-yl) = O=C([C@H](CC[*:3])N[*:1])[*:2]; 2Nal = N[C@@H](Cc1ccc2ccccc2c1)C(=O)O; αMeK = C[C@](N)(CCCCN)C(=O)O; Abu = CC[C@H](N)C(=O)O; AEA = NCCOCC(=O)O

B1: [Ac-[Pen]-QTWQ-[Pen]-[Phe(4-CONH2)]-[2-Nal]-[α-MeLys]-[Lys(Ac)]-NN-NH2]2DIG (peptide)
peptide: XQTWQXFXKKNN
modifications: Ac; Pen-Pen disulfide; Phe(4-CONH2); 2-Nal; α-MeLys; Lys(Ac); NH2; DIG linker joins the two subunits
B2: [Ac-[Pen]-QTWQ-[Pen]-[Phe(4-OMe)]-[2-Nal]-[α-MeLys]-[Lys(Ac)]-NN-NH2]2DIG (peptide)
peptide: XQTWQXFXKKNN
modifications: Ac; Pen-Pen disulfide; Phe(4-OMe); 2-Nal; α-MeLys; Lys(Ac); NH2; DIG linker joins the two subunits
B3: [Ac-[Pen]-QTWQ[Pen]-[Phe[4-(2-acetylaminoethoxy)]-[2-Nal]-K-[Lys(Ac)]-NN-NH2]2DIG (peptide)
peptide: XQTWQXFXKKNN
modifications: Ac; Pen-Pen disulfide; Phe[4-(2-acetylaminoethoxy)]; 2-Nal; Lys(Ac); NH2; DIG linker joins the two subunits
B4: [Ac-[Pen]-QTWQ[Pen]-[Phe[4-(2-acetylaminoethoxy)]-[2-Nal]-[α-MeVal]-KNN-NH2]2DIG (peptide)
peptide: XQTWQXFXVKNN
modifications: not fully specified; Ac; Pen-Pen disulfide; Phe[4-(2-acetylaminoethoxy)]; 2-Nal; α-MeVal; NH2; DIG linker joins the two subunits
B5: Ac-Cyclo-[[Abu]RTWQC]-YWRKFG-[AEA]-[(D)Lys]-NH2 (peptide)
peptide: Ac-[Abu(4-yl)]RTWQCYWRKFG[AEA][dK]-NH2
modifications: thioether 1-6
SMILES: CC(=O)N[C@H]1CCSC[C@@H](C(=O)N[C@@H](Cc2ccc(O)cc2)C(=O)N[C@@H](Cc2c[nH]c3ccccc23)C(=O)N[C@@H](CCCNC(=N)N)C(=O)N[C@@H](CCCCN)C(=O)N[C@@H](Cc2ccccc2)C(=O)NCC(=O)NCCOCC(=O)N[C@H](CCCCN)C(N)=O)NC(=O)[C@H](CCC(N)=O)NC(=O)[C@H](Cc2c[nH]c3ccccc23)NC(=O)[C@H]([C@@H](C)O)NC(=O)[C@H](CCCNC(=N)N)NC1=O
B6: Ac-CSTWQCYWLKHGGE-NH2 (peptide)
peptide: Ac-CSTWQCYWLKHGGE-NH2
modifications: disulfide 1-6
SMILES: CC(=O)N[C@H]1CSSC[C@@H](C(=O)N[C@@H](Cc2ccc(O)cc2)C(=O)N[C@@H](Cc2c[nH]c3ccccc23)C(=O)N[C@@H](CC(C)C)C(=O)N[C@@H](CCCCN)C(=O)N[C@@H](Cc2c[nH]cn2)C(=O)NCC(=O)NCC(=O)N[C@@H](CCC(=O)O)C(N)=O)NC(=O)[C@H](CCC(N)=O)NC(=O)[C@H](Cc2c[nH]c3ccccc23)NC(=O)[C@H]([C@@H](C)O)NC(=O)[C@H](CO)NC1=O

These binders were tested against T1, Rat IL-23R_huFC (rat, UniProt F1LX96 39-369) (assay: rat IL-23R competitive binding ELISA).
T1 sequence: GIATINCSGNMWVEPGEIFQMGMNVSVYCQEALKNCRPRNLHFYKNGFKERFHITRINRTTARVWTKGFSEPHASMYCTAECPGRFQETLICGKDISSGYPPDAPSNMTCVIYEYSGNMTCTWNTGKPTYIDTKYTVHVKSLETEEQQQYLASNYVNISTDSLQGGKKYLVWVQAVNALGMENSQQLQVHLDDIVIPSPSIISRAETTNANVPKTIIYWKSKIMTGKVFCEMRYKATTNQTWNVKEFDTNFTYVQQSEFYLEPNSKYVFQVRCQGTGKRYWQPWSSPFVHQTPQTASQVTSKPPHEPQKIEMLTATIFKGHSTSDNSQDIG

| Binder | IC50 |
| --- | --- |
| B1 | 10 to 25 nM |
| B2 | 10 to 25 nM |
| B3 | 25 to 100 nM |
| B4 | 10 to 25 nM |

What follows are binders tested against Rat IL-23R_huFC (rat) (assay: rat ELISA vs IL-23).

| Binder | IC50 |
| --- | --- |
| Ac-[Abu]QTWQC[Phe(4-OMe)][2Nal][dN]K(Ac)NG-NH2 (thioether 1-6) [Ac-Cyclo-[[Abu]-QTWQC]-[Phe(4-OMe)]-[2-Nal]-[(D)Asn]-[Lys(Ac)]-NG-NH2] | 100 to 1000 nM |
| Ac-[Abu]QTWQC[Phe(4-OMe)][2Nal][αMeK]ENG-NH2 (thioether 1-6) [Ac-Cyclo-[[Abu]-QTWQC]-[Phe(4-OMe)]-[2-Nal]-[α-MeLys]-ENG-NH2] | 100 to 1000 nM |
| Ac-[Abu]QTWQC[Phe(4-OMe)(3)][Tyr(3-tBu)][αMeK]ENG-NH2 (thioether 1-6) [Ac-Cyclo-[[Abu]-QTWQC]-[Phe(4-OMe)]-[Tyr(3-tBu)]-[α-MeLys]-ENG-NH2] | 100 to 1000 nM |
| B5 | 100 to 1000 nM |
| Ac-[Abu]QTWQCYWRENG[AEA][dK]-NH2 (thioether 1-6) [Ac-Cyclo-[[Abu]-QTWQC]-YWRENG-[AEA]-[(D)Lys]-NH2] | 100 to 1000 nM |
| XQTWQXFXKENG (as bracketed in name; thioether cyclo) [Ac-Cyclo-[[Abu]-QTWQ-[Pen]]-[Phe(4-OMe)]-[2-Nal]-[α-MeLys]-ENG-NH2] | 100 to 1000 nM |
| XQTWQXFXKKNG (as bracketed in name; thioether cyclo) [Ac-Cyclo-[[Abu]-QTWQ-[Pen]]-[Phe(4-OMe)]-[2-Nal][α-MeLys]-[Lys(Ac)]NG-NH2] | 100 to 1000 nM |
| XQTWQCXXXKNG (as bracketed in name; thioether cyclo) [Ac-Cyclo-[[Abu]-QTWQC]-[2-Nal]-[2-Nal]-[α-MeOrn]-[Lys(Ac)]-NG-NH2] | 100 to 1000 nM |

Target: T1, Rat IL-23R_huFC
Assay: rat IL-23R competitive binding ELISA
Remark: another data set of the same source

| Binder | IC50 |
| --- | --- |
| B6 | 24 nM |
| CQTWQCYWLENG (not fully specified; Ac; α-MeLeu at 9; NH2) [Ac-CQTWQCYW-[α-MeLeu]-ENG-NH2] | 27 nM |

Each binder was assayed against T2, IL23R_huFC (human, UniProt Q5VWK5 24-353) (assay: human ELISA vs IL-23).
T2 sequence (looked up): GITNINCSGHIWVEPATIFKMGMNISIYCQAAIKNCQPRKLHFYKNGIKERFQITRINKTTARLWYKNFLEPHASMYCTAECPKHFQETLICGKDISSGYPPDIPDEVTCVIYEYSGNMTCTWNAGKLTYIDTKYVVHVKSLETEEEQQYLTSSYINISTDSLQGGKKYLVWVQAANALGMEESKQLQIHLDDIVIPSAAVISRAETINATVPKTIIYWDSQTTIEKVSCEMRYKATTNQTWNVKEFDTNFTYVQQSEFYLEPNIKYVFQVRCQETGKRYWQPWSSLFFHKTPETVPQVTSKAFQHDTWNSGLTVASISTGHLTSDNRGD

| Binder | IC50 |
| --- | --- |
| Ac-[Abu]QTWQC[Phe(4-OMe)][2Nal][dN]K(Ac)NG-NH2 (thioether 1-6) [Ac-Cyclo-[[Abu]-QTWQC]-[Phe(4-OMe)]-[2-Nal]-[(D)Asn]-[Lys(Ac)]-NG-NH2] | 25 to 100 nM |
| Ac-[Abu]QTWQC[Phe(4-OMe)][2Nal][αMeK]ENG-NH2 (thioether 1-6) [Ac-Cyclo-[[Abu]-QTWQC]-[Phe(4-OMe)]-[2-Nal]-[α-MeLys]-ENG-NH2] | 25 to 100 nM |
| Ac-[Abu]QTWQC[Phe(4-OMe)(3)][Tyr(3-tBu)][αMeK]ENG-NH2 (thioether 1-6) [Ac-Cyclo-[[Abu]-QTWQC]-[Phe(4-OMe)]-[Tyr(3-tBu)]-[α-MeLys]-ENG-NH2] | 25 to 100 nM |
| B5 | 25 to 100 nM |

What follows are binders tested against T3, IL-23R on human cells (IL-23R-expressing DB cells; human NK cells) (human, UniProt Q5VWK5 24-629) (assay: cell-based or functional assay).
T3 sequence (looked up): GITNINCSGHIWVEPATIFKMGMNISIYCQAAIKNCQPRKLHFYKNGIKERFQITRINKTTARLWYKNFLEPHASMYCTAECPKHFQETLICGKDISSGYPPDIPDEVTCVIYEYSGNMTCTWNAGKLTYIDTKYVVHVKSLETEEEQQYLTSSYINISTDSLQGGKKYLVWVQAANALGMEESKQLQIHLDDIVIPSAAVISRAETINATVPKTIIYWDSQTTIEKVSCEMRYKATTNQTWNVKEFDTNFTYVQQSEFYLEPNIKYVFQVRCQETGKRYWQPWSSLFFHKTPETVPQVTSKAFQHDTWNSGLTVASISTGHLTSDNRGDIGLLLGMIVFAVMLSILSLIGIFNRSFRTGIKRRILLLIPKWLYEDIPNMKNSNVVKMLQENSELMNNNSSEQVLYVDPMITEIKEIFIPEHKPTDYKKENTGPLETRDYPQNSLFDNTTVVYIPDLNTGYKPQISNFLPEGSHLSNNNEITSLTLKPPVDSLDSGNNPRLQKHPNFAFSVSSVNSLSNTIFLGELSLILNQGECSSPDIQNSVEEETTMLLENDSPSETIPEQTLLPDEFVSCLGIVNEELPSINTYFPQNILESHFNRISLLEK

| Binder | NK cell assay IC50 (IFNγ) |
| --- | --- |
| XQTWQXFXLKNN (as bracketed in name; Pen-Pen disulfide) [Ac-[Pen]-QTWQ-[Pen]-[Phe[4-(2-aminoethoxy)]-[2-Nal]-[α-MeLeu]-[Lys(Ac)]-NN-NH2] | < 10 nM |

Target: T3, IL-23R on human cells …
Assay: cell-based or functional assay
Remark: another data set of the same source

| Binder | pStat3 HTRF IC50 |
| --- | --- |
| Ac-[Abu]QTWQC[Phe(4-OMe)][2Nal][αMeK]ENG-NH2 (thioether 1-6) [Ac-Cyclo-[[Abu]-QTWQC]-[Phe(4-OMe)]-[2-Nal]-[α-MeLys]-ENG-NH2] | < 10 nM |

Target: T2, IL23R_huFC
Assay: human ELISA vs IL-23
Remark: another data set of the same source

| Binder | IC50 |
| --- | --- |
| Ac-[Abu]QTWQCYWRENG[AEA][dK]-NH2 (thioether 1-6) [Ac-Cyclo-[[Abu]-QTWQC]-YWRENG-[AEA]-[(D)Lys]-NH2] | 100 to 1000 nM |
| XQTWQXFXKENG (as bracketed in name; thioether cyclo) [Ac-Cyclo-[[Abu]-QTWQ-[Pen]]-[Phe(4-OMe)]-[2-Nal]-[α-MeLys]-ENG-NH2] | 100 to 1000 nM |

These binders were tested against T4, IL-23R on DB cells (human, UniProt Q5VWK5 24-629) (assay: cell-based or functional assay).
T4 sequence (looked up): T3 sequence (looked up)

| Binder | pStat3 HTRF IC50 |
| --- | --- |
| B6 | 2 nM |
| CQTWQCYWLENG (not fully specified; Ac; α-MeLeu at 9; NH2) [Ac-CQTWQCYW-[α-MeLeu]-ENG-NH2] | 5 nM |
